Data published in patent US12385055B2, “Compositions and methods for production of salidroside, icariside D2, and precursors of salidroside and icariside D2” (Whitehead Institute for Biomedical Research, priority 2017, dated 2025).

Legend:
[1] = 4-HPAA reductase activity assay; type: biochemical; settings: 5 mM 4-HPAA, 10 mM NADPH, five-minute time point
Method: The phenylacetaldehyde reductase activity assays using Rr4HPAR1 and RrPAR2 were carried out in 200 μL reaction buffer (50 mM Tris, pH 8.0) at the presence of 2 mM phenylacetaldehyde, 5 mM NADPH and 5 μg of recombinant enzyme. The reactions were incubated at 30° C. for various time points, quenched with an equal volume of 0.8 M formic acid, and extracted by 100 μL of ethyl acetate. The organic phase was then analyzed by gas chromatography-mass spectrometry (GC-MS) using an 5% Phenyl Methyl Silox column (30 m×250 m×0.25 m, Agilent) with a temperature gradient as follows: 0-1 min 45° C., 4-13.33 min 45-185° C. The quadrupole MS was set to EI mode, electron energy at 70 eV, MS-source temperature at 230° C., MS-quad temperature at 150° C., scan mass range at 50-300 m/z and SIM for 120 m/z and 122 m/z. EI-MS spectra were compared against analytical standards. The 4-HPAA reductase activity assays were carried out in 100 μL of 50 mM Tris pH 8.0 with the addition of 5 mM 4-HPAA, 10 mM NADPH and 0.2 μg of Rr4HPAR1 or […] of Rr4HPAR2. […] The reaction mixture was then centrifuged and analyzed by LC-MS. […] Product formation was measured using select ion monitoring in positive mode for a centroid center mass of 121.065 with a scan width of 0.002. The specific activity was determined at a five-minute reaction time point, and quantified against a standard curve of tyrosol.

[2] = Phenylacetaldehyde reductase activity assay; type: biochemical; settings: NADPH as co-substrate
Method: FIG. 15 is a chromatogram showing the enzymatic reduction of phenylacetaldehyde to phenylethyl alcohol by Rr4HPAR1 and Rr4HPAR2. Chromatogram of positive ion mode metabolites between 50 and 300 m/z show the depletion of phenylacetaldehyde and production of phenylethyl alcohol when exposed to NADPH and Rr4HPAR1 or RrPAR2. Reactions were carried out in 200 μL 50 mM Tris, pH 8.0 in the presence of 2 mM phenylacetaldehyde, 5 mM NADPH and 50 μg of recombinant enzyme. The reactions were incubated at 30° C. for 25 minutes prior to quenching with 200 μL of 0.8 M formic acid, extracted with 100 μL of ethyl acetate and analyzed by gas chromatography-mass spectrometry. Phenylethyl alcohol was verified by comparison to an authentic standard.
The phenylacetaldehyde reductase activity assays using Rr4HPAR1 and RrPAR2 were carried out in 200 μL reaction buffer (50 mM Tris, pH 8.0) at the presence of 2 mM phenylacetaldehyde, 5 mM NADPH and 5 μg of recombinant enzyme. […] The organic phase was then analyzed by gas chromatography-mass spectrometry (GC-MS) using an 5% Phenyl Methyl Silox column (30 m×250 m×0.25 m, Agilent) with a temperature gradient as follows: 0-1 min 45° C., 4-13.33 min 45-185° C. […] The reaction mixture was then centrifuged and analyzed by LC-MS. […] Product formation was measured using select ion monitoring in positive mode for a centroid center mass of 121.065 with a scan width of 0.002. […]

**Q.** What does the source list for “Rr4HPAR1: R. rosea 4-hydroxyphenylacetaldehyde reductase, reduces 4-HPAA to tyrosol”?
**A.** specific activity towards 4-HPAA [1]: 6.9 µmol/min/mg; reduction of phenylacetaldehyde to phenylethanol [2]: higher activity
